Results on one substance are retold here after patent publication US20230117883A1.

In general, pKd refers to the negative decadic logarithm of the Kd, by convention in mol/L. Broadly, the kon is a measure of how fast the partners come together. Low values mean slower complex formation, high ones faster complex formation.

This experiment has as its target human transferrin receptor 1 (human) (UniProt P02786). As to the kind of experiment: Carterra LSA biosensor, 25C; IgG captured on anti-IgG lawn, hTfR1 injected; 1:1 Langmuir fit.

pKd: −log10 of the molar value.

Sequence of UniProt P02786 (P02786 89-760 limits assumed): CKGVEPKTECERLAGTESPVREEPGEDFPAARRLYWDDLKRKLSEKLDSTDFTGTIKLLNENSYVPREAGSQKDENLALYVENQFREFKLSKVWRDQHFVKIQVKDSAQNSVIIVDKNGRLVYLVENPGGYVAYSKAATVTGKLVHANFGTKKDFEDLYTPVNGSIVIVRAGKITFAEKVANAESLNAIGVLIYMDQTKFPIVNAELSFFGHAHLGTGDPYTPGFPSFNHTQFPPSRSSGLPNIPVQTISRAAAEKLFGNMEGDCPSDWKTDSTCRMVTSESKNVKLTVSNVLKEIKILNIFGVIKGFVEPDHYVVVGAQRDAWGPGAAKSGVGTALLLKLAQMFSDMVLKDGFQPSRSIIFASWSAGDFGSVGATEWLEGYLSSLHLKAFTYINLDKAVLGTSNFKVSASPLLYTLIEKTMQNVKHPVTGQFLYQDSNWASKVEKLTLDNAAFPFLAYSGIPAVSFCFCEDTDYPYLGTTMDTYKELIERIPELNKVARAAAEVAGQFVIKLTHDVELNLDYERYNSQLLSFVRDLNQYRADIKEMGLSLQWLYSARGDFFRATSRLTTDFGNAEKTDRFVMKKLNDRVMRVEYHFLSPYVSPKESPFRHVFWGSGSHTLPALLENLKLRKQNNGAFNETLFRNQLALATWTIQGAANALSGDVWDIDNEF

“OKT9 mIgG (known anti-TfR1 antibody, control)” had a negative logarithm of the Kd (pKd) of 9.27 and a kon of 774000 M⁻¹ s⁻¹.
